Measured values from publication PMC6889415, “Global redox proteome and phosphoproteome analysis reveals redox switch in Akt” (Nature Communications, 2019).
One block for each binder: values may come before it.

Legend:
[1] = target: the molecule itself; test: non-reducing SDS-PAGE with immunoblot; adipocytes treated with BCNU or BCNU/AF for 2 or 24 h; washed and scraped in PBS with 100 mM NEM, 1% SDS; non-reducing SDS-PAGE, immunoblot; dimer/monomer ratio measured
[2] = target: T1, peroxiredoxin 2 (mouse (endogenous in 3T3-L1 adipocytes)), Q61171; test: as above; conditions: remark: other sources report otherwise
T1 chain: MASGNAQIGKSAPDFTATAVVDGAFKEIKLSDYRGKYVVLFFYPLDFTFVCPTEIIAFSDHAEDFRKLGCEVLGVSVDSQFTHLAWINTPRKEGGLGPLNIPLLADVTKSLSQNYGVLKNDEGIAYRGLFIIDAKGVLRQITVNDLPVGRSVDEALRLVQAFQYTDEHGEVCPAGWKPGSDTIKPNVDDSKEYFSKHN

B1: peroxiredoxin 3 (natural protein, mouse (endogenous in 3T3-L1 adipocytes), UniProt P20108 63-257, looked up)
chain: TPAVTQHAPYFKGTAVVNGEFKELSLDDFKGKYLVLFFYPLDFTFVCPTEIVAFSDKANEFHDVNCEVVAVSVDSHFSHLAWINTPRKNGGLGHMNITLLSDITKQISRDYGVLLESAGIALRGLFIIDPNGVVKHLSVNDLPVGRSVEETLRLVKAFQFVETHGEVCPANWTPESPTIKPSPTASKEYFEKVHQ
notes: peroxiredoxin 3 (Prdx3), mitochondrial, endogenous in 3T3-L1 adipocytes, detected with anti-PRDX3; The dimer seen on the non-reducing gel is held by a disulfide bond formed on oxidation; also called Prdx3; PRDX3; source: endogenous, 3T3-L1 adipocyte lysate
stoichiometry N [1]: 2

stoichiometry N [2]: 2
B2: peroxiredoxin 2, Q61171 1-198 (natural protein)
chain: T1 chain
